# Publication PMC3159478 (Nucleic Acids Research, 2011)
# T1: SsoMCM K323A/R440A (Sulfolobus solfataricus, UniProt Q9UXG1 1-686, K323A;R440A)
# T1 sequence: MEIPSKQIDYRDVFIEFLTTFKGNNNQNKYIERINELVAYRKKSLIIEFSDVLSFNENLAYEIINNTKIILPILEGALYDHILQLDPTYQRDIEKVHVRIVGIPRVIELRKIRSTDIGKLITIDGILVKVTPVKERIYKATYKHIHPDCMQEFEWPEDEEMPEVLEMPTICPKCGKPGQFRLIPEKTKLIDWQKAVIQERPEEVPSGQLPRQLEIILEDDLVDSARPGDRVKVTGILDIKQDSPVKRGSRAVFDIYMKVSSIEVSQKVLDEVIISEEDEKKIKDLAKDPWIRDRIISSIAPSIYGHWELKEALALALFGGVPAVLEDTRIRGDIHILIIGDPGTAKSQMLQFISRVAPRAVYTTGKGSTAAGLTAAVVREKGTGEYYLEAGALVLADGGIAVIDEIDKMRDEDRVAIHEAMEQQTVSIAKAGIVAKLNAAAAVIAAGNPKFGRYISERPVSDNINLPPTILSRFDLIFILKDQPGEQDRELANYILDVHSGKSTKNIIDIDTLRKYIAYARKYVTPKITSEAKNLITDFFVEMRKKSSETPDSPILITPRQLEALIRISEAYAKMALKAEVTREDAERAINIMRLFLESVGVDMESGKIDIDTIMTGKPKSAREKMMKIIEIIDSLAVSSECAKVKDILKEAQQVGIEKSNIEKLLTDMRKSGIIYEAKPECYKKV
# T2: SsoMCM WT (Sulfolobus solfataricus, UniProt Q9UXG1 1-686)
# T2 sequence: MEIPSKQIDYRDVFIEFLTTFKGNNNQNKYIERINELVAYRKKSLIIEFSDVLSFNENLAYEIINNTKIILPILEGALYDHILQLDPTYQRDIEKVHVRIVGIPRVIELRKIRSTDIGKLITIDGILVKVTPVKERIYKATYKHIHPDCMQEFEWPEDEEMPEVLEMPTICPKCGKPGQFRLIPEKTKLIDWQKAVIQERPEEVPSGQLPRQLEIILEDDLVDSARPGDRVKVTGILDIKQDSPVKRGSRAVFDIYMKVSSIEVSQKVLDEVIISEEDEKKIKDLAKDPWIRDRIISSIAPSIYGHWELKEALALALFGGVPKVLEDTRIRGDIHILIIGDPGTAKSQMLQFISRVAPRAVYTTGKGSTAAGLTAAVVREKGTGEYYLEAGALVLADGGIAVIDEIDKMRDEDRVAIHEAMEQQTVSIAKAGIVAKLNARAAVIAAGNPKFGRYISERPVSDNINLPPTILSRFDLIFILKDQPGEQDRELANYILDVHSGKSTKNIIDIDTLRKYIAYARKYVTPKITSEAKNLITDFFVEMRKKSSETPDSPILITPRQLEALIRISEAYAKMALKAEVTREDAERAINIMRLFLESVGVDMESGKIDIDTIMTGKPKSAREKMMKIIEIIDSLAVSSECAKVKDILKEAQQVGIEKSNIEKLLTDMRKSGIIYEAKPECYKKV
# B1: spFRET fork 5'-tail 50 (51 nt) (mixed)
# DNA 1: TGGCGACGGCAGCGAGGCTTTTTTTTTTTTTTTTTTTTTTTTTTTTTTT
# DNA 2: TTTTTTTTTTTTTTTTTTTTTTTTTTTTTTTTTTTTTTTTTTTTTTTTTTTGCCTCGCTGCCGTCGCCA
# B2: spFRET fork 5'-tail 70 (71 nt) (mixed)
# DNA 1: TGGCGACGGCAGCGAGGCTTTTTTTTTTTTTTTTTTTTTTTTTTTTTTT
# DNA 2: TTTTTTTTTTTTTTTTTTTTTTTTTTTTTTTTTTTTTTTTTTTTTTTTTTTTTTTTTTTTTTTTTTTTTTTGCCTCGCTGCCGTCGCCA
# B3: ssDNA (66 nt) (ssDNA)
# DNA: CACCTCTCCCTACGCTTCCCACCCACCCCGACCGGCATCTGCTATGGTACGCTGAGCGAGAGTAGC
# B4: Full-length wild-type Sulfolobus solfataricus minichromosome maintenance (MCM) helicase (enzyme, UniProt Q9UXG1 1-686, looked up)
# chain: MEIPSKQIDYRDVFIEFLTTFKGNNNQNKYIERINELVAYRKKSLIIEFSDVLSFNENLAYEIINNTKIILPILEGALYDHILQLDPTYQRDIEKVHVRIVGIPRVIELRKIRSTDIGKLITIDGILVKVTPVKERIYKATYKHIHPDCMQEFEWPEDEEMPEVLEMPTICPKCGKPGQFRLIPEKTKLIDWQKAVIQERPEEVPSGQLPRQLEIILEDDLVDSARPGDRVKVTGILDIKQDSPVKRGSRAVFDIYMKVSSIEVSQKVLDEVIISEEDEKKIKDLAKDPWIRDRIISSIAPSIYGHWELKEALALALFGGVPKVLEDTRIRGDIHILIIGDPGTAKSQMLQFISRVAPRAVYTTGKGSTAAGLTAAVVREKGTGEYYLEAGALVLADGGIAVIDEIDKMRDEDRVAIHEAMEQQTVSIAKAGIVAKLNARAAVIAAGNPKFGRYISERPVSDNINLPPTILSRFDLIFILKDQPGEQDRELANYILDVHSGKSTKNIIDIDTLRKYIAYARKYVTPKITSEAKNLITDFFVEMRKKSSETPDSPILITPRQLEALIRISEAYAKMALKAEVTREDAERAINIMRLFLESVGVDMESGKIDIDTIMTGKPKSAREKMMKIIEIIDSLAVSSECAKVKDILKEAQQVGIEKSNIEKLLTDMRKSGIIYEAKPECYKKV
# B5: SsoMCM R440A (enzyme, Sulfolobus solfataricus, UniProt Q9UXG1 1-686, looked up)
# chain: MEIPSKQIDYRDVFIEFLTTFKGNNNQNKYIERINELVAYRKKSLIIEFSDVLSFNENLAYEIINNTKIILPILEGALYDHILQLDPTYQRDIEKVHVRIVGIPRVIELRKIRSTDIGKLITIDGILVKVTPVKERIYKATYKHIHPDCMQEFEWPEDEEMPEVLEMPTICPKCGKPGQFRLIPEKTKLIDWQKAVIQERPEEVPSGQLPRQLEIILEDDLVDSARPGDRVKVTGILDIKQDSPVKRGSRAVFDIYMKVSSIEVSQKVLDEVIISEEDEKKIKDLAKDPWIRDRIISSIAPSIYGHWELKEALALALFGGVPKVLEDTRIRGDIHILIIGDPGTAKSQMLQFISRVAPRAVYTTGKGSTAAGLTAAVVREKGTGEYYLEAGALVLADGGIAVIDEIDKMRDEDRVAIHEAMEQQTVSIAKAGIVAKLNAAAAVIAAGNPKFGRYISERPVSDNINLPPTILSRFDLIFILKDQPGEQDRELANYILDVHSGKSTKNIIDIDTLRKYIAYARKYVTPKITSEAKNLITDFFVEMRKKSSETPDSPILITPRQLEALIRISEAYAKMALKAEVTREDAERAINIMRLFLESVGVDMESGKIDIDTIMTGKPKSAREKMMKIIEIIDSLAVSSECAKVKDILKEAQQVGIEKSNIEKLLTDMRKSGIIYEAKPECYKKV
# B6: SsoMCM K323A (enzyme, Sulfolobus solfataricus, UniProt Q9UXG1 1-686, looked up)
# chain: MEIPSKQIDYRDVFIEFLTTFKGNNNQNKYIERINELVAYRKKSLIIEFSDVLSFNENLAYEIINNTKIILPILEGALYDHILQLDPTYQRDIEKVHVRIVGIPRVIELRKIRSTDIGKLITIDGILVKVTPVKERIYKATYKHIHPDCMQEFEWPEDEEMPEVLEMPTICPKCGKPGQFRLIPEKTKLIDWQKAVIQERPEEVPSGQLPRQLEIILEDDLVDSARPGDRVKVTGILDIKQDSPVKRGSRAVFDIYMKVSSIEVSQKVLDEVIISEEDEKKIKDLAKDPWIRDRIISSIAPSIYGHWELKEALALALFGGVPAVLEDTRIRGDIHILIIGDPGTAKSQMLQFISRVAPRAVYTTGKGSTAAGLTAAVVREKGTGEYYLEAGALVLADGGIAVIDEIDKMRDEDRVAIHEAMEQQTVSIAKAGIVAKLNARAAVIAAGNPKFGRYISERPVSDNINLPPTILSRFDLIFILKDQPGEQDRELANYILDVHSGKSTKNIIDIDTLRKYIAYARKYVTPKITSEAKNLITDFFVEMRKKSSETPDSPILITPRQLEALIRISEAYAKMALKAEVTREDAERAINIMRLFLESVGVDMESGKIDIDTIMTGKPKSAREKMMKIIEIIDSLAVSSECAKVKDILKEAQQVGIEKSNIEKLLTDMRKSGIIYEAKPECYKKV
# B7: SsoMCM K323A/R440A (enzyme, Sulfolobus solfataricus, UniProt Q9UXG1 1-686, looked up)
# chain: MEIPSKQIDYRDVFIEFLTTFKGNNNQNKYIERINELVAYRKKSLIIEFSDVLSFNENLAYEIINNTKIILPILEGALYDHILQLDPTYQRDIEKVHVRIVGIPRVIELRKIRSTDIGKLITIDGILVKVTPVKERIYKATYKHIHPDCMQEFEWPEDEEMPEVLEMPTICPKCGKPGQFRLIPEKTKLIDWQKAVIQERPEEVPSGQLPRQLEIILEDDLVDSARPGDRVKVTGILDIKQDSPVKRGSRAVFDIYMKVSSIEVSQKVLDEVIISEEDEKKIKDLAKDPWIRDRIISSIAPSIYGHWELKEALALALFGGVPAVLEDTRIRGDIHILIIGDPGTAKSQMLQFISRVAPRAVYTTGKGSTAAGLTAAVVREKGTGEYYLEAGALVLADGGIAVIDEIDKMRDEDRVAIHEAMEQQTVSIAKAGIVAKLNAAAAVIAAGNPKFGRYISERPVSDNINLPPTILSRFDLIFILKDQPGEQDRELANYILDVHSGKSTKNIIDIDTLRKYIAYARKYVTPKITSEAKNLITDFFVEMRKKSSETPDSPILITPRQLEALIRISEAYAKMALKAEVTREDAERAINIMRLFLESVGVDMESGKIDIDTIMTGKPKSAREKMMKIIEIIDSLAVSSECAKVKDILKEAQQVGIEKSNIEKLLTDMRKSGIIYEAKPECYKKV
# Legend:
# SsoMCM K323A/R440A = target: T1, SsoMCM K323A/R440A; assay: single-pair FRET
# SsoMCM WT [1] = target: T2, SsoMCM WT; assay: single-pair FRET
# SsoMCM WT [2] = target: T2, SsoMCM WT; assay: fluorescence anisotropy
# SEC = target: the molecule itself; assay: SEC
binder,measurement,setting,value
B1,binding result,SsoMCM K323A/R440A,binds
same,binding result,SsoMCM WT [1],binds
B2,binding result,SsoMCM K323A/R440A,binds
same,binding result,SsoMCM WT [1],binds
B3,Kd,SsoMCM WT [2],26 ± 5 nM
B4,stoichiometry N,SEC,6
B5,stoichiometry N,SEC,6
B6,stoichiometry N,SEC,6
B7,stoichiometry N,SEC,6
